The source of these data is patent US10335470B2, “Immunogenic compositions comprising progastrin and uses thereof” (Board of Regents, The University of Texas System, priority 2006, dated 2019).

Assay [1] deals with T1, specific binding sites for rhPG (Annexin II) (Rattus norvegicus, UniProt Q07936).
T1 construct: endogenous in cells; host or cells: AR42J cells; IEC cells
The experiment in a line: Displacement of 125I-rhPG binding to AR42J and IEC cells. The conditions noted are these: 1.0 nM 125I-rhPG. On the procedure:
FIGS. 8A-8C show binding of ^125I-rhPG and ^125I-BH-CCK8 to a pancreatic cancer cell line, AR42J and intestinal epithelial cells (IEC). […] The relative binding affinity of the gastrin like peptides for the specific binding sites for rhPG (FIGS. 8A and B) (Annexin II) and CCK8 (FIG. 8C) to CCK2R was calculated. Data in each point represents the mean values of triplicate measurements from a single experiment and is representative of 2 similar experiments. The intra-experimental variation for each data point was <5-10%. The nM concentration of each peptide used is presented in a log-scale on the x-axis; the excess unlabeled peptide used for displacing the binding of the radio labeled ligand is presented in parentheses. The % loss in the relative binding of the radio labeled ligand in the presence of the increasing concentrations of the indicated non-labeled peptide is presented on the y-axis. IEC cells lack CCK2R binding sites and therefore binding with radio-labeled CCK8 was not examined with these cells.
The full-length recombinant human PG1-80 (rhPG) was generated in an E. coli expression system and purified and confirmed as described previously (Singh et al, 2003). rhPG was radio labeled with Na ^125I (Amersham, Chicago, Ill.), and the intact ^125I-rhPG purified by HPLC as described previously (Singh et al, 2003). For these experiments, AR42J cells were expanded in vitro in […] and grown to subconfluence in the growth medium containing 10% FCS. […] The binding data was analyzed by a Scatchard plot as described previously (Singh et al, 1995). […]
In order to define the RBA of various peptides for the PG binding sites on the cells, cells in suspension were incubated with 1.0 nM ^125I-rhPG in the presence or absence of increasing concentrations (0.1 nM-10.0 μM) of either the homologous or heterologous peptide. Non-specific binding was determined in the presence of 1000× excess of the non-labeled homologous peptide. […] Cell pellets were counted for ^125I in a gamma counter with ˜70% efficiency for ^125I. […]

The subject of assay [2] is aberrant crypt foci in PS21 (Fabp-PG) mice. The experiment in a line: Aberrant crypt foci in response to AOM in immunized PS21 Fabp-PG transgenic mice. Type of assay: in vivo, mouse. The conditions noted are these: immunized PS21 mice vs wild type mice. On the procedure:
Aberrant crypt forci (ACFs) are pre-neoplastic markers of colon carcinogenesis and represent dysplastic growth of colonic crypts, which is the earliest stage of pre-cancerous changes in the colonic mucosa as described in detail previously (Singh et al, 2000b). […] These mice were immunized with either thioredoxin, or the progastrin peptide alone or the fusion protein (FP) which contained thioredoxin and progastrin.
All injections were administered subcutaneously. […] The ACFs were then counted.

In the next assay the test system is progastrin. The experiment in a line: Anti-progastrin antibody titers in immunized mice (solid phase ELISA). Type of assay: in vivo, mouse. The conditions noted are these: for anti-PG-antibody titers: PS21 transgenic and WT mice, CFA/IFA, s.c. day 1, 21, 42.
A further assay relates to thioredoxin. The conditions noted are these: all mouse groups (WT and PS21).
The subject of assay [3] is intestinal epithelial cells (IEC), colon cancer cells and pancreatic cancer cells. The conditions noted are these: cited from earlier work.
Another assay addresses T2, CCK2R (Rattus norvegicus, UniProt P30553).
T2 construct: endogenous in cells; host or cells: AR42J cells
T2 sequence (P30553 1-452): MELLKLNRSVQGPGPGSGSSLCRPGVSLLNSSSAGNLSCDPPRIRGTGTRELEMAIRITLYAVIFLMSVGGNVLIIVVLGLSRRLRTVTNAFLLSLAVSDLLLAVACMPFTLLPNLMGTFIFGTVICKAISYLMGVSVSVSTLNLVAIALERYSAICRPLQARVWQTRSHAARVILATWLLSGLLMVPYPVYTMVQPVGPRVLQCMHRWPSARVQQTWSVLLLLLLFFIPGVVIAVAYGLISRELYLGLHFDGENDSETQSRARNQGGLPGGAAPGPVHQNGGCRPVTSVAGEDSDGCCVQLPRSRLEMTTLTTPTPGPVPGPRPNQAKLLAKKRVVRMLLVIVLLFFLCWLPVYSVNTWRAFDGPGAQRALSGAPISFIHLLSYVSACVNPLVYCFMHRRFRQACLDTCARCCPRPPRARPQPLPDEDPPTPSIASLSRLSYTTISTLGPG
The experiment in a line: Displacement of 125I-BH-CCK8 binding to AR42J cells.

Assay [4] relates to colon tumors in FVB/N mice. The experiment in a line: AOM-induced colon carcinogenesis in immunized FVB/N mice. Type of assay: in vivo, mouse. The conditions noted are these: 6 months after AOM, vs adjuvant alone. From the text:
(§1) FIGS. 6A-6C show immune response induced by hPG-fusion protein (FP) immunogen in different mouse models. […] The immunized Balb/c mice were inoculated with mouse CA cells at week 10 and sacrificed at week 14 and the tumors in the mice were weighed. Control mice received adjuvant alone. The weight of the tumors is indicated by an arrow against Ab titer of each mouse in mgs. Tumor weights from 3 of 6 animals are presented. […] FIGS. 6B and 6C show effect of vaccination with rhPG-FP immunogen on colon carcinogenesis in FVB/N mice. FVB/N mice were immunized with the hPG-fusion protein (FP) immunogen by 3-4 weekly injections and the PG-Ab titers were measured as described for the Balb/c mice. Once the mice developed significant PG-Ab titers, the mice were treated with azoxymethane (AOM) and the total number and size of tumors measured after 6 months of AOM treatment. The number of tumors (FIG. 6B) and the tumor burden (FIG. 6C) is presented herein. *=p<0.05 vs control values. Control mice were immunized with adjuvant alone.
(§2) Since autocrine and endocrine PG might be playing an important role in colon carcinogenesis, the possibility of using an rhPG fusion protein as an immunogen for treatment purposes was examined. Briefly, the rhPG fusion protein (FP) was used as an immunogen in Balb/C, FVB/N and FABP-PG mice. […]

Assay [5] relates to mouse colon cancer (CA) cells. Nature of the assay: Growth of mouse colon cancer (CA) cells in immunized Balb/c mice. Type of assay: in vivo. The conditions noted are these: CA cells inoculated at week 10, sacrificed week 14, control adjuvant alone, listed as hPG-immunogen.
From the text: as §1, §2

T1 sequence (Q07936 2-339 limits assumed): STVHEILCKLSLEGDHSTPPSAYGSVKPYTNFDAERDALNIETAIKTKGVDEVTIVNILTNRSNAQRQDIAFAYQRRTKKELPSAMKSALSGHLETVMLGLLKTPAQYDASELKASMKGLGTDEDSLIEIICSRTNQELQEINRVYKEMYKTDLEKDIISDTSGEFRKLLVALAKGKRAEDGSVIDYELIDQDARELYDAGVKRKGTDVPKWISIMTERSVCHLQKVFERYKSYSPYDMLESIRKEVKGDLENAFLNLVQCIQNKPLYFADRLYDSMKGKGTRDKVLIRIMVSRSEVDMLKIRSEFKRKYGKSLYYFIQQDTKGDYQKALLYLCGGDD
Sequence of thioredoxin (P0AA25 whole entry): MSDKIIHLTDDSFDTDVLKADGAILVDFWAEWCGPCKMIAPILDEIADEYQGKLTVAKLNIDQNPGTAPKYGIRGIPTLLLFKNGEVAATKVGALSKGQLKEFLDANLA
Procedure for CCK2R: Cells were incubated with the indicated radio labeled ligand in the presence or absence of increasing concentrations of either CCK8, G17 or rhPG. The relative binding affinity of the gastrin like peptides for the specific binding sites for rhPG (FIGS. 8A and B) (Annexin II) and CCK8 (FIG. 8C) to CCK2R was calculated.
In a few experiments, ^125I-Bolton Hunter-CCK-8 (Amersham Biosciences, Piscataway, N.J.) was used as the radiolabeled ligand and the RBA of gastrin like peptides for displacing the binding of ^125I-BH-CCK8 to AR42J cells examined by our published methods (Singh et al, 1995).
From the text for thioredoxin: Briefly, transgenic mice expressing human progastrin (PS21) and wild type mice were divided into 3 groups and immunized with (a) recombinant thioredoxin, (b) a recombinant fusion protein where human progastrin was fused with thioredoxin and recombinant progastrin, all proteins were expressed in E. coli and purified from cell extract. Each protein was emulsified using CFA/IFA (Sigma) as an adjuvant. The mice that received vaccine emulsified using CFA on day 1 followed by two subsequent immunization using IFA on day 21 and day 42. All injections were administered subcutaneously. Mice were bled and serum prepared to estimate the titers once a week for 3 weeks, 15 days after the final immunization.
The antibody tires in serum were determined by solid phase ELISA using limiting dilution method. Briefly, 96 wells PVC ELISA plates (Falcon) were coated with 3 different recombinant protein expressed in E. coli that were used to vaccinate mice i.e. recombinant thioredoxin, Thioredoxin-PG fusion protein and recombinant PG. Recombinant proteins were dissolved in carbonate buffer pH 9.0 and coated at a concentration of 50 μg/50 μl/well. The plates were incubated overnight at 4° C. Following day the plates were flipped and the well were blocked with 100 μl 2% non fat dry milk (NFDM) and plated were incubated at 37° C. for 3-4 hours. […] The ELISA plated were them read in plate reader at 490 nm.

Take “G17: 17 amino acid C-terminally amidated gastrin peptide”: the “displacement of binding of radio-labeled rhPG / binding affinity for PG binding sites” value in assay [1] is on record as “negligible binding affinity”.
On to “CCK: cholecystokinin (CCK-8), amidated peptide closely related to gastrin”, for which the “displacement of binding of radio-labeled rhPG / binding affinity for PG binding sites” value in assay [1] is recorded as “negligible binding affinity”.
As to “thioredoxin: recombinant bacterial thioredoxin carrier protein expressed in E. coli, used alone as immunogen [reference compound]”, the “development of ACF in response to AOM” value in assay [2] is reported as “significantly enhanced”. The anti-PG-antibody titers entry in the assay on progastrin is “not effective at all”. Also, in the assay with thioredoxin, the anti-thioredoxin-antibody titers entry is “significant titers”.

B1: PG: full-length recombinant human progastrin PG1-80, 80 amino acids (SEQ ID NO:3), generated in E. coli (protein)
chain: SWKPRSQQPDAPLGTGANRDLELPWLEQQGPASHHRRQLGPQGPPHLVADPSKKQGPWLEEEEEAYGWMDFGRRSAEDEN
modifications: sequence of progastrin peptide expressed by recombinant expression vector
B1: in assay [2], the “development of ACF in response to AOM” value is recorded as “significantly enhanced”. For the same molecule, the anti-PG-antibody titers result with progastrin is reported as “much less effective”; in the assay on progastrin (listed as PG peptide), “much lower levels”. The “growth factor-like effects on cells” value in assay [3] was “potent growth factor-like effects”. In addition, the “displacement of binding of 125I-BH-CCK8 to CCK2R” value in the assay with CCK2R is “largely ineffective”. For the same molecule, in assay [1], the “displacement of binding of radio-labeled rhPG / binding affinity for PG binding sites” value is recorded as “dose-dependently displaced”.

B2: rhPG fusion protein (FP): full length human progastrin protein fused with carrier protein thioredoxin (from bacteria), expressed in E. coli, used as immunogen (protein)
chain: B1 chain
modifications: left off: large carriers; small tags and cut ends
notes: full length human progastrin protein fused with carrier protein thioredoxin (from bacteria), expressed in E. coli, used as immunogen
Regarding B2, the “total number of tumors” value in assay [4] is reported as “significantly (p<0.05) reduced”. Moreover, the tumor burden/mouse result in assay [4] is “significantly (p<0.05) reduced”. Moreover, the “development of ACF in response to AOM” value in assay [2] is given as “complete attenuation”. Moreover, in the assay on progastrin (Balb/C, FVB/N and FABP-PG mice, within 4-8 weeks of vaccination), the “titers of specific anti-hPG-Abs” value is recorded as “very high titers”. Also, the “generation of PG antibodies, FP vs PG alone” value in the assay on progastrin (PS21 mice) is on record as 2 fold. Also, the results for the anti-PG-antibody titers in the assay with progastrin and with progastrin (listed as progastrin fusion protein) were 2 fold to much higher titers and “strong response”, respectively. Also, in assay [5], the “CA tumor weights reduced compared to control mice” value is 15-30%.
